Data on seven molecules can be found in paper PMC11103505, “AXL-specific single domain antibodies show diagnostic potential and anti-tumor activity in Acute Myeloid Leukemia” (Theranostics, 2024).

The chains are these.
B7: recombinant mouse AXL protein (receptor, UniProt Q00993 19-445, looked up)
chain: AHKDTQTEAGSPFVGNPGNITGARGLTGTLRCELQVQGEPPEVVWLRDGQILELADNTQTQVPLGEDWQDEWKVVSQLRISALQLSDAGEYQCMVHLEGRTFVSQPGFVGLEGLPYFLEEPEDKAVPANTPFNLSCQAQGPPEPVTLLWLQDAVPLAPVTGHSSQHSLQTPGLNKTSSFSCEAHNAKGVTTSRTATITVLPQRPHHLHVVSRQPTELEVAWTPGLSGIYPLTHCNLQAVLSDDGVGIWLGKSDPPEDPLTLQVSVPPHQLRLEKLLPHTPYHIRISCSSSQGPSPWTHWLPVETTEGVPLGPPENVSAMRNGSQVLVRWQEPRVPLQGTLLGYRLAYRGQDTPEVLMDIGLTREVTLELRGDRPVANLTVSVTAYTSAGDGPWSLPVPLEPWRPGQGQPLHHLVSEPPPRAFSWPWW
notes: AXL receptor tyrosine kinase, mouse; recombinant protein R&D Systems #854-AX; also called mouse Axl antigen; recombinant mouse antigen; source: bought: R&D Systems (#854-AX)

Assay [1] concerns the target B7. The assay can be described thus: SPR; Biacore-T200; recombinant AXL protein immobilised on CM5 chip by amine coupling (EDC/NHS); sdAbs injected at ten concentrations from 1.9 to 500 nM; 25°C; HBS (20 mM HEPES pH 7.4, 150 mM NaCl, 3.4 mM EDTA, 0.005% Tween 20); 10 µL/min; 1:1 binding model. Particulars: both partners purified.
The target of assay [2] is T1, recombinant human AXL protein (human, UniProt P30530).
T1 construct: receptor tyrosine kinase AXL, human, recombinant protein from R&D Systems; also called hAXL; source: bought: R&D Systems
T1 sequence (P30530 26-451): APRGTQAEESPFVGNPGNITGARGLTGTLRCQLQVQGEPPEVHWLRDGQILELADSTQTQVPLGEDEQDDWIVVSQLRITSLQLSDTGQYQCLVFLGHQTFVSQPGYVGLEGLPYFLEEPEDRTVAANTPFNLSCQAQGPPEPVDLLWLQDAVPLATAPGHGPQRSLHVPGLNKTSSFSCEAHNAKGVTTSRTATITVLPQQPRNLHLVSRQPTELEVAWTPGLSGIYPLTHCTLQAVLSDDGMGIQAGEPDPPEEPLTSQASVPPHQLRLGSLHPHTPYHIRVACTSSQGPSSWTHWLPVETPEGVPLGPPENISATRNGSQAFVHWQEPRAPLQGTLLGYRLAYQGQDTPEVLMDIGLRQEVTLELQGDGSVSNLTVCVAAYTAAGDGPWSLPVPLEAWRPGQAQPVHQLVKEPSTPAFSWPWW
The assay can be described thus: SPR; competition assay for blocking of hAXL and hGAS6; which partner was immobilised is not shown. Particulars: both partners purified.

For assay [3], the target named is T2, AXL on AXL-overexpressing murine C1498 AML cells (Mus musculus, UniProt Q00993).
T2 construct: receptor tyrosine kinase AXL overexpressed in murine C1498 cells by lentiviral transduction; also called AXL^high C1498; source: C1498 cells, lentivirally transduced and positively selected, on cells
The assay can be described thus: flow cytometry on cells; sdAb20 or sdAb20-Fc on AXL-expressing human and murine cancer cell lines, compared with the irrelevant control R3B23 or R3B23-Fc; read-out MFI. Particulars: one partner purified. In general terms: In flow cytometry, cells or beads pass a laser one at a time.

Assay [4] concerns the target T3, recombinant mouse AXL protein (Mus musculus, UniProt Q00993).
T3 construct: receptor tyrosine kinase AXL, mouse, recombinant protein from R&D Systems; also called recombinant mouse antigen; source: bought: R&D Systems
In words: SPR; Biacore T200; recombinant AXL immobilised on CM5 chip by amine coupling; seven serial dilutions of sdAb flowed over; 25 °C; HBS (20 mM HEPES pH 7.4, 150 mM NaCl, 3.4 mM EDTA, 0.005% Tween 20); 1:1 binding model. The settings on record: both partners purified. Background: Surface plasmon resonance follows binding to a sensor surface in real time, without labels.

In assay [5] the target is T4, recombinant human AXL protein (Homo sapiens, UniProt P30530).
T4 construct: AXL receptor tyrosine kinase, human; recombinant protein R&D Systems #154-AL; also called hAXL; AXL - Homo sapiens; source: bought: R&D Systems (#154-AL)
T4 sequence (P30530 26-451): as above
In words: SPR; Biacore-T200; recombinant AXL protein immobilised on CM5 chip by amine coupling (EDC/NHS); sdAbs injected at ten concentrations from 1.9 to 500 nM; 25°C; HBS (20 mM HEPES pH 7.4, 150 mM NaCl, 3.4 mM EDTA, 0.005% Tween 20); 10 µL/min; 1:1 binding model. The settings on record: both partners purified.

The target of assay [6] is T5, [111In]In-DTPA-sdAb20-Fc (alpaca (Vicugna pacos)).
T5 construct: as the VHH of Dm1; the His6 tag of sdAb20 was replaced with the mIgG2a-Fc region; about 80 kDa; also called [111In] anti-AXL sdAb20-Fc; 111In-labeled sdAb20-Fc; source: DTPA-conjugated and 111In-labelled, purified (SEC, NAP-5); not shown: Fc (mouse IgG2a), C-terminal, kept
The assay can be described thus: ELISA; radio-ELISA: recombinant mouse AXL coated on Lockwell C8 Maxisorp plates; serial dilution of [111In]In-DTPA-sdAb-Fc in PBS + 1% FBS; bound radioactivity by gamma counter; specific binding = total minus non-specific binding. Particulars: both partners purified. A general note: ELISA stands for enzyme-linked immunosorbent assay.

As a reminder, the IC50 is the midpoint of a concentration-inhibition curve. What is called Kd is the free concentration of one partner at which half of the binding sites on the other are occupied at equilibrium, for simple one-to-one binding.

B1: anti-AXL single domain antibody sdAb19 (VHH)
VHH: QVQLQESGGGMVQPGGSLRLSCAASGFTFTSYDMTWLRQTPGKGPEWVSTISTGGLRTYYGNSVKGRFIISRDNTKNTLYLQMNSLKPEDTALYYCARGPFTVADPRRGQGTQVTVSS
notes: source: E. coli WK6, periplasmic expression, purified (IMAC, SEC)
As for B1, in assay [1], the binding result was “binds”.

B2: anti-AXL single domain antibody sdAb20 (VHH)
VHH: QVQLQESGGGLVRPGGSLRLSCAASGFTFTSYDMTWLRQTPGKGPEWVSTISTGGLRTYYGNSVKGRFIISRDNTKNTLYLQMNSLKPEDTALYYCARGPFTVADPRRGQGTQVTVSS
notes: re-cloned into pHEN6 (C-terminal His6 tag), monomeric format; source: E. coli WK6, periplasmic expression, purified (IMAC, SEC)
Consider B2, for which the binding result in assay [1] was “binds”.

B3: anti-AXL single domain antibody sdAb20 (VHH)
VHH: QVQLQESGGGLVRPGGSLRLSCAASGFTFTSYDMTWLRQTPGKGPEWVSTISTGGLRTYYGNSVKGRFIISRDNTKNTLYLQMNSLKPEDTALYYCARGPFTVADPRRGQGTQVTVSS
notes: alpaca-derived; Re-cloned into pHEN6, which encodes the C-terminal His6 tag; also called lead compound; monovalent sdAb20; source: E. coli WK6, periplasmic expression, purified (IMAC, SEC); not shown: His6, C-terminal, kept
For the molecule B3, the IC50 in assay [2] stood at 119 nM. Moreover, the binding result in assay [3] and in assay [4] was “binds” each time.

B4: anti-AXL single domain antibody sdAb25 (VHH)
VHH: QVQLQESGGGLVQPGGSLRLSCVASGSIFSIYAMGWYRQAPGKQRELVAGISSGGSTNYADSVKGRFTISRDNAKNTVYLQMNSLKPEDTAVYYCNYDLVEAVTGEYDYWGQGTQVTVSS
notes: as for B1
Take B4: the binding result in assay [1] and in assay [5] was “binds” throughout.

B5: anti-AXL single domain antibody sdAb4 (VHH)
VHH: QVQLQESGGGLVQPGGSLRLSCVASGSIFSIYAMGWYRQAPGKQRELVAGISSGGSTNYADSVKGRFTISRDNAKNTVYLQMNSLKPEDTAVYYCNYDLVKAVTGEYDYWGQGTQVTVSS
notes: as for B1
As to B5, the binding result in assay [1] and in assay [5] was “binds” throughout.

B6: anti-AXL single domain antibody sdAb12 (VHH)
VHH: QVQLQESGGGLVKPGGSLRLSCVASGSIFSIYAMGWYRQAPGKQRELVAGISSGGSTNYADSVKGRFTISRDNAKNTVYLQMNSLKPEDTAVYYCNYDLVEAVTGEYDYWGQGTQVTVSS
notes: as for B1
For the molecule B6, the binding result in assay [1] and in assay [5] was “binds” in each case.
For the molecule B7, the Kd in assay [6] was 11.9 nM.
